In data set [1] the target is T1, BRG1 AT-BRD (human, UniProt P51532 1434-1569). The experiment in a line: NMR titration; 25 C; FA and NMR: 50 mM K phosphate pH 7.0, 50 mM KCl, 0.5 mM EDTA, 1 mM DTT (NMR +10% D2O), 20 C (BRG1 NMR 25 C); EMSA: 150 nM DNA/NCP, 10 mM K phosphate, 10 mM KCl, on ice, 0.2x TBE gel. Conditions: protein: recombinant; tags: pDEST15 or pGEX6p1 (GST); blunt. For orientation: Mobility shift assays separate free from complexed probe on a gel.

Data set [2] deals with T1, BRG1 AT-BRD. The experiment in a line: fluorescence anisotropy; FA and NMR: 50 mM K phosphate pH 7.0, 50 mM KCl, 0.5 mM EDTA, 1 mM DTT (NMR +10% D2O), 20 C (BRG1 NMR 25 C); EMSA: 150 nM DNA/NCP, 10 mM K phosphate, 10 mM KCl, on ice, 0.2x TBE gel. The following applies: protein: recombinant; tags: pDEST15 or pGEX6p1 (GST); label: 5' 6-FAM on strand 1; blunt.
Data set [3] concerns the target hBRM-A AT-BRD (human, UniProt P51531 1358-1508). Description: NMR titration; 1:1 stoichiometric; FA and NMR: 50 mM K phosphate pH 7.0, 50 mM KCl, 0.5 mM EDTA, 1 mM DTT (NMR +10% D2O), 20 C (BRG1 NMR 25 C); EMSA: 150 nM DNA/NCP, 10 mM K phosphate, 10 mM KCl, on ice, 0.2x TBE gel. The following applies: protein: recombinant; tags: pDEST15 (GST) with PreScission site; blunt.

This passage reports binding result and Kd results from PMC5519978, “DNA binding drives the association of BRG1/hBRM bromodomains with nucleosomes”.

T1 sequence (P51532 1434-1569): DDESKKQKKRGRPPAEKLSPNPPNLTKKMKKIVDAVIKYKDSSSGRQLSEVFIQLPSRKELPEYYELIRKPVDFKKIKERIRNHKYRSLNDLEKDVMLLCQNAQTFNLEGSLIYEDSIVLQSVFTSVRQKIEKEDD
Chain of hBRM-A AT-BRD (P51531 1358-1508): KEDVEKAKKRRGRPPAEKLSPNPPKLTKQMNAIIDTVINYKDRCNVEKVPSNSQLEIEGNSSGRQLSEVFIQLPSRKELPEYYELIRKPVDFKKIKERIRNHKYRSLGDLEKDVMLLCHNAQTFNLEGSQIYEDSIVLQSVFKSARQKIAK

B1: DNAII (dsDNA)
DNA 1: CGTAGACAGCT
DNA 2: AGCTGTCTACG
For B1, in data set [1], the binding result is “binds”.

B2: DNAI.FA (dsDNA)
DNA 1: CCTCAATTGGTC
DNA 2: GACCAATTGAGG
A word on the Kd: it is the concentration at which binding is half-saturated. On to B2, for which the Kd in data set [2] is 16 ± 2 µM.

B3: DNAI (dsDNA)
DNA 1: CTCAATTGGT
DNA 2: ACCAATTGAG
For the molecule B3, the binding result in data set [3] and in data set [1] was “binds” throughout.

B4: DNAII.FA (dsDNA)
DNA 1: CGTAGACAGCTC
DNA 2: GAGCTGTCTACG
In the case of B4, the Kd in data set [2] was found to be 40 ± 10 µM.

B5: DNAIII (dsDNA)
DNA 1: CCTCAATTGGTCGTAG
DNA 2: CTACGACCAATTGAGG
In the case of B5, the binding result in data set [3] was “binds”.
